In publication doi:10.1101/2021.04.01.438030:

Biological target: SNAP-GLP-1R (glucagon-like peptide-1 receptor with an N-terminal SNAP-tag) on HEK293-SNAP-GLP-1R cells (UniProt P43220)
Assay: FRET

Chain of UniProt P43220 (P43220 24-463): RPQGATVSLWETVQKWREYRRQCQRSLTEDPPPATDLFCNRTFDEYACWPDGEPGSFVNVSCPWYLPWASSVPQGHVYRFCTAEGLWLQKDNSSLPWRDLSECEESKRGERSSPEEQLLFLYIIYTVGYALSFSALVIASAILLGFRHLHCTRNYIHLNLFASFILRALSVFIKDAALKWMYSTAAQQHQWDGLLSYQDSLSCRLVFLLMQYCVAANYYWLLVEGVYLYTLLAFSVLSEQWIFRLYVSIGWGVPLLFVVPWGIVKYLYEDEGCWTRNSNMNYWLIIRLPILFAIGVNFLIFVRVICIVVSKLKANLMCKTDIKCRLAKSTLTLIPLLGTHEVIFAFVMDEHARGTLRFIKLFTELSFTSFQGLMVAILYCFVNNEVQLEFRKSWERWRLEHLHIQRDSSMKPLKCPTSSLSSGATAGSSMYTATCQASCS

exendin-4 (from UniProt P26349 48-87)
Ki: 0.63 nM

exendin-4-C16 (from UniProt P26349 48-87)
Ki: 1.6 nM
